{"source": "patent US9718864B2", "about": "(HAINAN UNIVERSITY, dated 2017)", "assay_in_all_cases": "cell-based or functional assay", "key": {"[1]": {"target": "rat α7 nAChR (rat, UniProt Q05941)"}, "[2]": {"target": "rat NMDA receptor NR1-2b/NR2D (rat, UniProt P35439)"}, "[3]": {"target": "rat NMDA receptor NR1-2b/NR2A (rat, UniProt P35439)"}}, "note": "No end group written: not given here."}
{"binder": "TCRSSGRYCRSPYDRRRRYCRRITDACV (not fully specified; ends and bridges not checked)", "note": "[αO-conotoxin GeXIVA13]", "values": [{"measurement": "Half-blocking dose IC50 of ACh-gated current", "setting": "[1]", "value": 4.96, "unit": "µM"}, {"measurement": "Half-blocking dose IC50 of NMDA receptor current", "setting": "[2]", "value": "≥ 10", "unit": "µM"}, {"measurement": "Half-blocking dose IC50 of NMDA receptor current", "setting": "[3]", "value": "> 10", "unit": "µM"}]}
{"binder": "TCRSSGRYCRSPYDRRRRYCRRITDACV (not fully specified; ends and bridges not checked)", "note": "[αO-conotoxin GeXIVA14]", "values": [{"measurement": "Half-blocking dose IC50 of NMDA receptor current", "setting": "[2]", "value": "≥ 10", "unit": "µM"}]}
